According to patent US20040022777A1, “Fragments and antagonists of heat shock protein 60” (priority 1999, published 2004):

Assays:
Assay type in all cases: cell-based, mouse
[1] = system: bone marrow-derived macrophages of C3H/HeJ mice (mutant Toll-like receptor 4); experiment: TNFα production by bone marrow-derived macrophages with mutant Tlr4 (sandwich ELISA)
[2] = system: bone marrow-derived macrophages of C57BL/6 and C3H/HeN mice; experiment: TNFα production by bone marrow-derived macrophages with wild-type Tlr4 (sandwich ELISA)
[3] = system: bone marrow-derived macrophages of C57BL/6 and C3H/HeN mice; experiment: NO (nitrite) production by bone marrow-derived macrophages with wild-type Tlr4 (Griess reaction); conditions: 24 h
[4] = system: bone marrow-derived macrophages of C3H/HeJ mice (mutant Toll-like receptor 4); experiment: NO (nitrite) production by bone marrow-derived macrophages with mutant Tlr4 (Griess reaction)

B1: hsp60: Recombinant human hsp60 obtained from StressGen Biotechnologies (protein)
chain: AKDVKFGADARALMLQGVDLLADAVAVTMGPKGRTVIIEQSWGSPKVTKDGVTVAKSIDLKDKYKNIGAKLVQDVANNTNEEAGDGTTTATVLARSIAKEGFEKISKGANPVEIRRGVMLAVDAVIAELKKQSKPVTTPEEIAQVATISANGDKEIGNIISDAMKKVGRKGVITVKDGKTLNDELEIIEGMKFDRGYISPYFINTSKGQKCEFQDAYVLLSEKKISSIQSIVPALEIANAHRKPLVIIAEDVDGEALSTLVLNRLKVGLQVVAVKAPGFGDNRKNQLKDMAIATGGAVFGEEGLTLNLEDVQPHDLGKVGEVIVTKDDAMLLKGKGDKAQIEKRIQEIIEQLDVTTSEYEKEKLNERLAKLSDGVAVLKVGGTSDVEVNEKKDRVTDALNATRAAVEEGIVLGGGCALLRCIPALDSLTPANEDQKIGIEIIKRTLKIPAMTIAKNAGVEGSLIVEKIMQSSSEVGYDAMAGDFVNMVEKGIIDPTKVVRTALLDAAGVASLLTTAEVVVTEIPKEEKDPGMGAMGGMGGGMGGGMF
[1]; C3H/HeJ macrophages, LPS 10 ng/ml, hsp60 10 μg/ml, oligonucleotides 30 μg/ml, 6 h
  TNFα response: no response
[1]; C3H/HeJ macrophages, even at ten times higher hsp60 levels, 6 h
  TNFα response, dose dependence: no such response
[1]; Tlr4 defective macrophages, 10 μg/ml hsp60, observation period of 72 h
  TNFα production, time course: absent
[2]; C3H/HeN macrophages, 10 μg/ml hsp60
  time of peak levels of secreted TNFα: 6 to 12 h
[2]; C57BL/6 and C3H/HeN macrophages, LPS 10 ng/ml, hsp60 10 μg/ml, 6 h
  TNFα secretion: rapid secretion of large amounts of TNFα
[3]
  hsp60 concentration required for eliciting NO: 3 µg/mL
[3]; C3H/HeN macrophages
  nitrite levels on increasing the hsp60 concentration tenfold: about five times higher nitrite levels
[3]; C57BL/6 and C3H/HeN macrophages, LPS 10 ng/ml, hsp60 10 μg/ml
  NO production: same outcome
[4]; C3H/HeJ (Tlr4 defective) macrophages, LPS 10 ng/ml, hsp60 10 μg/ml, 24 h
  NO production: complete lack of a nitric oxide response
[4]; C3H/HeJ macrophages, 10 μg/ml hsp60, up to 72 h
  NO production, time course: no indication of NO production
[4]; Tlr4 defective macrophages, 24 h
  NO response on increasing the hsp60 concentration tenfold: completely refractory
